What is called stoichiometry N is a count of units in the complex or per binding partner. As a reminder, the Kd is the concentration at which binding is half-saturated. Low values mean higher affinity, high ones lower affinity.

Three molecules from article PMC5458760, “The LOTUS domain is a conserved DEAD-box RNA helicase regulator essential for the recruitment of Vasa to the germ plasm and nuage” (Genes & Development, 2017) can be followed below.

One data set concerns the target T1, Vasa 200–661 (Drosophila, UniProt P09052 200-661).
T1 construct: Vasa, Drosophila DEAD-box RNA helicase, helicase core with the C-terminal extension, residues 200-661; It may be the same preparation as His-Vasa 200–661; Construct details are in the Supplemental Material; also called Vasa helicase core; source: E. coli (Rosetta 2), purified
T1 sequence (looked up): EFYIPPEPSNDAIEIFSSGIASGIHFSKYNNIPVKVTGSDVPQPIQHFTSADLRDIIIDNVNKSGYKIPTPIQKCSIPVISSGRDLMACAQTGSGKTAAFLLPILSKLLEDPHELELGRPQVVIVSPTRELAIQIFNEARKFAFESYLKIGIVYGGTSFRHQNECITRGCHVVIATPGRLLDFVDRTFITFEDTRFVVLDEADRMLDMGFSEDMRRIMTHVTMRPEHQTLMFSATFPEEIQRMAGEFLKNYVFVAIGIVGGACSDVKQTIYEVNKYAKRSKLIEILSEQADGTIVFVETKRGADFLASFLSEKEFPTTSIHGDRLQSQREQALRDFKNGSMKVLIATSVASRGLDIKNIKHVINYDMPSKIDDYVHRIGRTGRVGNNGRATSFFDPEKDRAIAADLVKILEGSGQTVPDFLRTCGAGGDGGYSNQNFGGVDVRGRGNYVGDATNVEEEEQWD
Briefly: pull-down; GST pull-down with purified recombinant proteins; GST or GST fusion as bait (8.75-10 µM in the legends), Vasa as prey (17.5-20 µM in the legends); samples on an SDS gel stained with Coomassie brilliant blue. Particulars: both partners purified.

The target of a further data set is T2, His-Vasa 200–661 (Drosophila, UniProt P09052 200-661).
T2 construct: Vasa, Drosophila DEAD-box RNA helicase, helicase core with the C-terminal extension, residues 200-661; Construct details are in the Supplemental Material; also called His-tagged Vasa 200–661; wild-type Vasa helicase core; source: E. coli (Rosetta 2), purified
T2 sequence (looked up): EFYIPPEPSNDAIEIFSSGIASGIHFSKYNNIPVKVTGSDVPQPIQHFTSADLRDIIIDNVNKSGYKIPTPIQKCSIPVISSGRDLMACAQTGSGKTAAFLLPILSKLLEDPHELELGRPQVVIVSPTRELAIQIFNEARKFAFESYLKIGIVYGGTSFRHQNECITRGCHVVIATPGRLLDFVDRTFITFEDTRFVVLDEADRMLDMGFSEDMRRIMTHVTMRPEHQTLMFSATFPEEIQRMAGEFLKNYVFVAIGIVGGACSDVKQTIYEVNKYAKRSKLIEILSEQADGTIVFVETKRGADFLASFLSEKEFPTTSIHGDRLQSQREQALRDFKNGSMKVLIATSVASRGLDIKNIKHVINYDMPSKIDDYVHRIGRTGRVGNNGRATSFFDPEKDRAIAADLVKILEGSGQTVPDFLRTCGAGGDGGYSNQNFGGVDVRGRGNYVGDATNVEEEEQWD
The data set is described as above. Particulars: both partners purified.

Another data set addresses T3, Vasa 463–623 (Drosophila, UniProt P09052 463-623).
T3 construct: Vasa, Drosophila, C-terminal RecA-like domain without the C-terminal extension, residues 463-623; also called Vasa-CTD lacking the C-terminal extension; Vasa C-terminal RecA-like domain; source: E. coli (Rosetta 2), purified
T3 sequence (looked up): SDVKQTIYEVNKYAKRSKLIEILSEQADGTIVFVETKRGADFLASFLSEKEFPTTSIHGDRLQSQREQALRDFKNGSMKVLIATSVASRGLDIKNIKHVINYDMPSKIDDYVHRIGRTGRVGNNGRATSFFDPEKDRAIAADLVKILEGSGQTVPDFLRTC
Briefly: crystal structure; Oskar 139–240 and Vasa 463–623 mixed in a 2:1 molar ratio; hanging drop vapor diffusion at 18°C; 1.4 Å; molecular replacement. Particulars: both partners purified.

Data set [1] concerns the molecule itself. The data set is described as above.
The next data set concerns the target T4, Vasa 463–661 (Drosophila, UniProt P09052 463-661).
T4 construct: Vasa, Drosophila, C-terminal RecA-like domain with the C-terminal extension, residues 463-661; Details are in the Supplemental Material; also called Vasa-CTD; source: E. coli (Rosetta 2), purified
T4 sequence (looked up): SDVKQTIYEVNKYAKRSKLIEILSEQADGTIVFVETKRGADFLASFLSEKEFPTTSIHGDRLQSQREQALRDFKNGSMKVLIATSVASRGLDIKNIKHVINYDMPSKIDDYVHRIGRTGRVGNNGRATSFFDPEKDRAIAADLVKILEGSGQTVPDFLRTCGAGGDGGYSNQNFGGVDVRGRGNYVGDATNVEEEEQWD
Nature of the data set: ITC; Vasa 463–661 titrated to the Oskar LOTUS domain (144–240); 25°C; VP-ITC; 20 mM Tris pH 7.5, 150 mM sodium chloride; curve fitted with the LOTUS monomer concentration. The settings on record: both partners purified. (In ITC the heat of successive injections is recorded.)

B1: GST-Oskar LOTUS (amino acids 139–240) (domain or fragment, Drosophila, UniProt P25158 139-240, looked up)
chain: MTIIESNYISVREEYPDIDSEVRAILLSHAQNGITISSIKSEYRKLTGNPFPLHDNVTDFLLTIPNVTAECSESGKRIFNLKASLKNGHLLDMVLNQKERTS
notes: Oskar, Drosophila, LOTUS (eLOTUS) domain with its C-terminal extension, residues 139-240; residue numbers are those of the long isoform; Construct details are in the Supplemental Material; also called Oskar GST-LOTUS; GST fusion of the LOTUS domain of Oskar; source: E. coli (Rosetta 2), purified
For B1, the binding result with Vasa 200–661 and in the data set with His-Vasa 200–661 was “binds” each time.

B2: Oskar 139–240 (LOTUS domain) (domain or fragment, Drosophila, UniProt P25158 139-240, looked up)
chain: MTIIESNYISVREEYPDIDSEVRAILLSHAQNGITISSIKSEYRKLTGNPFPLHDNVTDFLLTIPNVTAECSESGKRIFNLKASLKNGHLLDMVLNQKERTS
notes: Oskar, Drosophila, LOTUS (eLOTUS) domain with its C-terminal extension, residues 139-240; residue numbers are those of the long isoform; This is a dimer in the crystal; No tag is stated for the crystallised protein; also called LOTUS domain of Oskar (amino acids 139–240); eLOTUS; source: E. coli (Rosetta 2), purified
Take B2: in the data set with Vasa 463–623, the binding result is on record as “binds”. The “stoichiometry N” value in data set [1] was found to be 2.

B3: Oskar LOTUS domain (amino acids 144–240) (domain or fragment, Drosophila, UniProt P25158 144-240, looked up)
chain: SNYISVREEYPDIDSEVRAILLSHAQNGITISSIKSEYRKLTGNPFPLHDNVTDFLLTIPNVTAECSESGKRIFNLKASLKNGHLLDMVLNQKERTS
notes: Oskar, Drosophila, LOTUS domain, residues 144-240; residue numbers are those of the long isoform; The legend notes that the LOTUS domain of Oskar forms dimers (Jeske et al. 2015); The ITC curve was fitted with the monomer concentration; Details are in the Supplemental Material; also called Osk 144–240; Oskar 144–240 (LOTUS); source: E. coli (Rosetta 2), purified
In the data set with Vasa 463–661, B3 came in with a Kd of roughly 10 µM.
